For this test, the target named is angiotensin II-bound mouse angiotensin II type 1 receptor F117W Δ324 (mouse | human). In words: cross-linking + other: high-mass MALDI-MS; angiotensin II-bound AT1R (angII-AT1R), 5 µM, mixed with partner protein at various concentrations, 1 h at room temperature, BS(PEG)9 cross-linking, 1.0 µM β-Gal as internal standard; 20 mM Hepes pH 7.5, 40 mM NaCl, 0.01% LMNG; Ka = 1/Kd.

B1: mini-Gq (domain or fragment)
chain: GIEKQLQKDKQVYRATHRLLLLGADNSGKSTIVKQMRILHGGSGGSGGTSGIFETKFQVDKVNFHMFDVGGQRDERRKWIQCFNDVTAIIFVVDSSDYNRLQEALNDFKSIWNNRWLRTISVILFLNKQDLLAEKVLAGKSKIEDYFPEFARYTTPEDATPEPGEDPRVTRAKYFIRDEFLRISTASGDGRHYCYPHFTCAVDTENARRIFNDCKDIILQMNLREYNLV
On to B1, for which the Ka came out at 480000 M⁻¹.

The record behind these values is article PMC8346855.
